B1: αE-catenin R551A (full-length) (natural protein, murine, UniProt P26231 1-906, looked up)
chain: MTAVHAGNINFKWDPKSLEIRTLAVERLLEPLVTQVTTLVNTNSKGPSNKKRGRSKKAHVLAASVEQATENFLEKGDKIAKESQFLKEELVVAVEDVRKQGDLMKSAAGEFADDPCSSVKRGNMVRAARALLSAVTRLLILADMADVYKLLVQLKVVEDGILKLRNAGNEQDLGIQYKALKPEVDKLNIMAAKRQQELKDVGNRDQMAAARGILQKNVPILYTASQACLQHPDVAAYKANRDLIYKQLQQAVTGISNAAQATASDDAAQHQGGSGGELAYALNNFDKQIIVDPLSFSEERFRPSLEERLESIISGAALMADSSCTRDDRRERIVAECNAVRQALQDLLSEYMGNAGRKERSDALNSAIDKMTKKTRDLRRQLRKAVMDHVSDSFLETNVPLLVLIEAAKNGNEKEVKEYAQVFREHANKLIEVANLACSISNNEEGVKLVRMSASQLEALCPQVINAALALAAKPQSKLAQENMDLFKEQWEKQVRVLTDAVDDITSIDDFLAVSENHILEDVNKCVIALQEKDVDGLDRTAGAIRGRAAAVIHVVTSEMDNYEPGVYTEKVLEATKLLSNTVMPRFTEQVEAAVEALSSDPAQPMDENEFIDASRLVYDGIRDIRKAVLMIRTPEELDDSDFETEDFDVRSRTSVQTEDDQLIAGQSARAIMAQLPQEQKAKIAEQVASFQEEKSKLDAEVSKWDDSGNDIIVLAKQMCMIMMEMTDFTRGKGPLKNTSDVISAAKKIAEAGSRMDKLGRTIADHCPDSACKQDLLAYLQRIALYCHQLNICSKVKAEVQNLGGELVVSGVDSAMSLIQAAKNLMNAVVQTVKASYVASTKYQKSQGMASLNLPAVSWKMKAPEKKPLVKREKQDETQTKIKRASQKKHVNPVQALSEFKAMDSI
notes: αE-catenin, murine, full length, with the point mutation R551A; Used in ITC (monomer in the cell); also called R551A αE-catenin; R551A mutant; source: E. coli BL21, purified (glutathione-agarose, TEV cleavage, Mono Q, SEC); monomer used; not shown: GST, N-terminal, cleaved
B2: β-catenin•Ecyto complex (complex)
chain 1: MATQADLMELDMAMEPDRKAAVSHWQQQSYLDSGIHSGATTTAPSLSGKGNPEEEDVDTSQVLYEWEQGFSQSFTQEQVADIDGQYAMTRAQRVRAAMFPETLDEGMQIPSTQFDAAHPTNVQRLAEPSQMLKHAVVNLINYQDDAELATRAIPELTKLLNDEDQVVVNKAAVMVHQLSKKEASRHAIMRSPQMVSAIVRTMQNTNDVETARCTAGTLHNLSHHREGLLAIFKSGGIPALVKMLGSPVDSVLFYAITTLHNLLLHQEGAKMAVRLAGGLQKMVALLNKTNVKFLAITTDCLQILAYGNQESKLIILASGGPQALVNIMRTYTYEKLLWTTSRVLKVLSVCSSNKPAIVEAGGMQALGLHLTDPSQRLVQNCLWTLRNLSDAATKQEGMEGLLGTLVQLLGSDDINVVTCAAGILSNLTCNNYKNKMMVCQVGGIEALVRTVLRAGDREDITEPAICALRHLTSRHQEAEMAQNAVRLHYGLPVVVKLLHPPSHWPLIKATVGLIRNLALCPANHAPLREQGAIPRLVQLLVRAHQDTQRRTSMGGTQQQFVEGVRMEEIVEGCTGALHILARDVHNRIVIRGLNTIPLFVQLLYSPIENIQRVAAGVLCELAQDKEAAEAIEAEGATAPLTELLHSRNEGVATYAAAVLFRMSEDKPQDYKKRLSVELTSSLFRTEPMAWNETADLGLDIGAQGEALGYRQDDPSYRSFHSGGYGQDALGMDPMMEHEMGGHHPGADYPVDGLPDLGHAQDLMDGLPPGDSNQLAWFDTDL
chain 2: not shown
notes: β-catenin, murine; cytoplasmic domain of E-cadherin (Ecyto); also called E-cadherin•β-catenin complex; cadherin•β-catenin

Columns and labels:
[1] = molecular target: B1; assay: ITC; VP-ITC; αE-catenin monomer (or its complex) in the cell at 8–11 μM, binding partner injected at 70–155 μM; 20 mM HEPES pH 8.0, 150 mM NaCl, 1 mM DTT; 25 °C; conditions: both partners purified
[2] = molecular target: T1, αE-catenin R551A•β-catenin•Ecyto complex (murine | , UniProt P26231 1-906; Q02248 1-781; P09803 734-884, R551A); assay: as above; conditions: both partners purified
T1 construct: αE-catenin, murine, full length, with the point mutation R551A; β-catenin, murine; cytoplasmic domain of E-cadherin (Ecyto); Ternary complex placed in the ITC cell; also called ternary E-cadherin•β-catenin•αE-catenin R551A mutant complex; source: αE-catenin R551A: E. coli BL21, purified; not shown: GST, N-terminal, cleaved; copies: + +
T1 sequence (P09803 734-884, stated change not applied, one chain of several): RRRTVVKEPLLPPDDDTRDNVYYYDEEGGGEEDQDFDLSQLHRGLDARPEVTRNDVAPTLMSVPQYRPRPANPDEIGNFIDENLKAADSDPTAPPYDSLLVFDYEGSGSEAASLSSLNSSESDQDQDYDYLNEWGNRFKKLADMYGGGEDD

[3] = molecular target: the molecule itself; assay: crystal structure; αE-catenin 82–883 (C116S) dimer, 4.0 Å, crystals not dehydrated
β-catenin•Ecyto complex = molecular target: B2; assay: ITC; VP-ITC; αE-catenin monomer (or its complex) in the cell at 8–11 μM, binding partner injected at 70–155 μM; 20 mM HEPES pH 8.0, 150 mM NaCl, 1 mM DTT; 25 °C; conditions: both partners purified
β-catenin•Ecyto complex, sequence (P09803 734-884, one chain of several): as the sequence (P09803 734-884, stated change not applied, one chain of several) above

Row | Binder | Kd [1] [nM] | dH [1] [kcal/mol] | further results
1 | vinculin D1 domain (residues 1–259) (domain or fragment, chicken, UniProt P12003 1-259, looked up, vinculin D1 domain, residues 1–259; the methods name chicken vinculin just before it) MPVFHTRTIESILEPVAQQISHLVIMHEEGEVDGKAIPDLTAPVSAVQAAVSNLVRVGKETVQTTEDQILKRDMPPAFIKVENACTKLVRAAQMLQADPYSVPARDYLIDGSRGILSGTSDLLLTFDEAEVRKIIRVCKGILEYLTVAEVVETMEDLVTYTKNLGPGMTKMAKMIDERQQELTHQEHRVMLVNSMNTVKELLPVLISAMKIFVTTKNTKSQGIEEALKNRNFTVEKMSAEINEIIRVLQLTSWDEDAWA | 4.1 | 7.7 | Kd [2]: 26 nM; dH [2]: 6.7 kcal/mol
2 | αE-catenin 82–883 (C116S) (domain or fragment, murine, UniProt P26231 82-883, looked up, Crystallised as a homodimer; source: E. coli BL21, purified (glutathione-agarose, TEV cleavage, Mono Q, SEC); not shown: GST, N-terminal, cleaved) ESQFLKEELVVAVEDVRKQGDLMKSAAGEFADDPSSSVKRGNMVRAARALLSAVTRLLILADMADVYKLLVQLKVVEDGILKLRNAGNEQDLGIQYKALKPEVDKLNIMAAKRQQELKDVGNRDQMAAARGILQKNVPILYTASQACLQHPDVAAYKANRDLIYKQLQQAVTGISNAAQATASDDAAQHQGGSGGELAYALNNFDKQIIVDPLSFSEERFRPSLEERLESIISGAALMADSSCTRDDRRERIVAECNAVRQALQDLLSEYMGNAGRKERSDALNSAIDKMTKKTRDLRRQLRKAVMDHVSDSFLETNVPLLVLIEAAKNGNEKEVKEYAQVFREHANKLIEVANLACSISNNEEGVKLVRMSASQLEALCPQVINAALALAAKPQSKLAQENMDLFKEQWEKQVRVLTDAVDDITSIDDFLAVSENHILEDVNKCVIALQEKDVDGLDRTAGAIRGRAARVIHVVTSEMDNYEPGVYTEKVLEATKLLSNTVMPRFTEQVEAAVEALSSDPAQPMDENEFIDASRLVYDGIRDIRKAVLMIRTPEELDDSDFETEDFDVRSRTSVQTEDDQLIAGQSARAIMAQLPQEQKAKIAEQVASFQEEKSKLDAEVSKWDDSGNDIIVLAKQMCMIMMEMTDFTRGKGPLKNTSDVISAAKKIAEAGSRMDKLGRTIADHCPDSACKQDLLAYLQRIALYCHQLNICSKVKAEVQNLGGELVVSGVDSAMSLIQAAKNLMNAVVQTVKASYVASTKYQKSQGMASLNLPAVSWKMKAPEKKPLVKREKQDETQTKIK |  |  | binding result [3]: binds
3 | β-catenin (natural protein, murine, UniProt Q02248 1-781, looked up, β-catenin, murine; also called murine β-catenin) MATQADLMELDMAMEPDRKAAVSHWQQQSYLDSGIHSGATTTAPSLSGKGNPEEEDVDTSQVLYEWEQGFSQSFTQEQVADIDGQYAMTRAQRVRAAMFPETLDEGMQIPSTQFDAAHPTNVQRLAEPSQMLKHAVVNLINYQDDAELATRAIPELTKLLNDEDQVVVNKAAVMVHQLSKKEASRHAIMRSPQMVSAIVRTMQNTNDVETARCTAGTLHNLSHHREGLLAIFKSGGIPALVKMLGSPVDSVLFYAITTLHNLLLHQEGAKMAVRLAGGLQKMVALLNKTNVKFLAITTDCLQILAYGNQESKLIILASGGPQALVNIMRTYTYEKLLWTTSRVLKVLSVCSSNKPAIVEAGGMQALGLHLTDPSQRLVQNCLWTLRNLSDAATKQEGMEGLLGTLVQLLGSDDINVVTCAAGILSNLTCNNYKNKMMVCQVGGIEALVRTVLRAGDREDITEPAICALRHLTSRHQEAEMAQNAVRLHYGLPVVVKLLHPPSHWPLIKATVGLIRNLALCPANHAPLREQGAIPRLVQLLVRAHQDTQRRTSMGGTQQQFVEGVRMEEIVEGCTGALHILARDVHNRIVIRGLNTIPLFVQLLYSPIENIQRVAAGVLCELAQDKEAAEAIEAEGATAPLTELLHSRNEGVATYAAAVLFRMSEDKPQDYKKRLSVELTSSLFRTEPMAWNETADLGLDIGAQGEALGYRQDDPSYRSFHSGGYGQDALGMDPMMEHEMGGHHPGADYPVDGLPDLGHAQDLMDGLPPGDSNQLAWFDTDL | 78 | -33.3 | 
4 | B1 |  |  | Kd (β-catenin•Ecyto complex): 14 nM
5 | B2 |  | -32.3 | 
